Laboratory results as given in the supplement of paper PMC10899765.

What was measured:
Conditions in all cases: 20 nM; 72 h
MCF10A [1] = assay: percent viability (nuclei count relative to siNT); higher = more viable cells
Description: (§1)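 After 72 h, cells were fixed and stained with Hoechst and anti-fibrillarin, and nucleoli per nucleus were counted with CellProfiler. Values are plate-adjusted percent effect for the one-nucleolus and 5+ nucleoli phenotypes, normalised to siNT (0%) and to the positive controls siNOL11 or siKIF11 (100%), as the mean of biological triplicates. Percent viability is the nuclei count relative to siNT.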

MCF10A [2] = assay: one-nucleolus phenotype percent effect (relative to siNT 0% and siNOL11 100%); higher = more cells with one nucleolus (ribosome biogenesis inhibition)
Description: as §1

MCF10A [3] = assay: 5+ nucleoli phenotype percent effect (relative to siNT 0% and siKIF11 100%); higher = more cells with five or more nucleoli
Description: as §1

Sequence | percent viability (MCF10A [1]) | one-nucleolus phenotype percent effect (MCF10A [2]) | 5+ nucleoli phenotype percent effect (MCF10A [3])
UGUGUUAGAAUAGGGGCAAUAA [hsa-miR-3152-3p] | 35.1% | 4.92% | -11.7%
UGUUCAUGUAGAUGUUUAAGC [hsa-miR-1206] | 95.8% | -22.5% | 42.5%
UGUUCAUUGGAACCCUGCGCAG [hsa-miR-6853-3p] | 79.8% | -28.7% | 29%
UGUUCCUCUGUCUCCCAGAC [hsa-miR-4326] | 32.4% | 18.8% | -25.5%
UGUUCUCUUUGCCAAGGACAG [hsa-miR-2117] | 56.1% | -0.405% | 4.15%
UGUUGCAAGUCGGUGGAGACGU [hsa-miR-4684-3p] | 43.9% | 4.39% | -9.23%
UGUUGGGAUUCAGCAGGACCAU [hsa-miR-4425] | 27.3% | 19.2% | -29%
UGUUGUACUUUUUUUUUUGUUC [hsa-miR-3613-5p] | 114% | -10.4% | 4.98%
UGUUGUCAUGUUUUUUCCCUAG [hsa-miR-6755-3p] | 26% | -6.42% | 34.6%
UGUUUCGGGGCUCAUGGCCUGUG [hsa-miR-5705] | 136% | -18.8% | 33.2%
UGUUUGUUGUAAGGAUCGUUGU [hsa-miR-8068] | 34.1% | 7.78% | -15.7%
UGUUUUGAUAACAGUAAUGU [hsa-miR-2052] | 144% | 0.685% | 5.44%
UUAACUCCUUUCACACCCAUGG [hsa-miR-4764-3p] | 91.4% | -18% | 15.3%
UUAAGACUUGCAGUGAUGUUU [hsa-miR-499a-5p] | 102% | 5.05% | -1.56%
UUAAUAUCGGACAACCAUUGU [hsa-miR-889] | 108% | -0.642% | 0.0778%
UUAAUGCUAAUCGUGAUAGGGGU [hsa-miR-155-5p] | 38.2% | 8.74% | -38.5%
UUAAUUUUUUGUUUCGGUCACU [hsa-miR-4775] | 88.3% | -18.6% | 21.1%
UUACACACAACUGAGGAUCAUA [hsa-miR-3941] | 16.8% | 7.76% | 0.22%
UUACACAGCUGGACAGAGGCA [hsa-miR-4672] | 17.6% | 38.5% | -34%
UUACAGGCGUGAACCACCGCG [hsa-miR-5095] | 12.8% | 15.8% | -7.36%

Sequence | percent viability (MCF10A [1]) | one-nucleolus phenotype percent effect (MCF10A [2]) | 5+ nucleoli phenotype percent effect (MCF10A [3])
UUACAGUUGUUCAACCAGUUACU [hsa-miR-582-5p] | 165% | -29.2% | 12.8%
UUACGGACCAGCUAAGGGAGGC [hsa-miR-4788] | 43.7% | -0.639% | 9.13%
UUAGAACGUUUUAGGGUCAAAU [hsa-miR-5687] | 50.5% | -12.4% | 16.2%
UUAGACCUAGUACACGUCCUU [hsa-miR-3684] | 85.2% | -19.2% | 16.1%
UUAGAGGCUGGAAUAGAGAUUCU [hsa-miR-6866-5p] | 14.1% | 9.98% | -0.659%
UUAGCCAAUUGUCCAUCUUUAG [hsa-miR-4662a-5p] | 33.5% | 9.07% | 1.03%
UUAGCGGUGGACCGCCCUGCG [hsa-miR-4321] | 47% | -12.2% | 3.56%
UUAGCUUAAGGAGUACCAGAUC [hsa-miR-5579-3p] | 65.6% | -7.52% | 7.97%
UUAGGCCAUCAUCCCAUUAUGC [hsa-miR-5704] | 181% | -23.2% | 46.5%
UUAGGCCGCAGAUCUGGGUGA [hsa-miR-1295a] | 33.2% | 8.73% | -12.5%
UUAGGGAGUAGAAGGGUGGGGAG [hsa-miR-3162-5p] | 52.8% | 8.12% | -5.7%
UUAGGGCCCUGGCUCCAUCUCC [hsa-miR-1296] | 39.5% | 8% | 13.2%
UUAGUCCUGCCUGUAGGUUUA [hsa-miR-4540] | 39.3% | 8.27% | -37.9%
UUAGUCUCAUGAUCAGACACA [hsa-miR-4474-5p] | 29.8% | -23.4% | 35.6%
UUAGUGAAGGCUAUUUUAAUU [hsa-miR-3606-5p] | 109% | 6.89% | -9.93%
UUAGUGCAUAGUCUUUGGUCU [hsa-miR-4671-3p] | 85.2% | -12% | 47.6%
UUAUAAAGCAAUGAGACUGAUU [hsa-miR-340-5p] | 21.9% | 47.7% | -24.6%
UUAUAAUACAACCUGAUAAGUG [hsa-miR-374a-5p] | 100% | -14.4% | 26.1%
UUAUCAGAAUCUCCAGGGGUAC [hsa-miR-361-5p] | 62.4% | -9.14% | -4.16%
UUAUGGUUUGCCUGGGACUGAG [hsa-miR-584-5p] | 77.9% | -25.7% | 35%

Sequence | percent viability (MCF10A [1]) | one-nucleolus phenotype percent effect (MCF10A [2]) | 5+ nucleoli phenotype percent effect (MCF10A [3])
UUAUUGCUUAAGAAUACGCGUAG [hsa-miR-137] | 114% | 47.7% | -22.6%
UUAUUGUCACGUUCUGAUU [hsa-miR-5701] | 22.2% | 4.81% | 3.43%
UUCAACAAGGGUGUAGGAUGG [hsa-miR-7159-5p] | 105% | -19.4% | 14.1%
UUCAACGGGUAUUUAUUGAGCA [hsa-miR-95] | 69.8% | -0.724% | 9.5%
UUCAAGUAAUCCAGGAUAGGCU [hsa-miR-26a-5p] | 103% | -6.05% | 17.8%
UUCAAGUAAUUCAGGAUAGGU [hsa-miR-26b-5p] | 149% | -8.67% | 45.6%
UUCAAGUAAUUCAGGUG [hsa-miR-1297] | 121% | -17.3% | 45.2%
UUCACAAGGAGGUGUCAUUUAU [hsa-miR-513b] | 62.4% | 14.2% | -29.7%
UUCACAGGGAGGUGUCAU [hsa-miR-513a-5p] | 68% | 24.8% | -25.5%
UUCACAGUGGCUAAGUUCCGC [hsa-miR-27a-3p] | 118% | -7.64% | -6.22%
UUCACAGUGGCUAAGUUCUGC [hsa-miR-27b-3p] | 128% | -13.3% | -0.0856%
UUCACAUUGUGCUACUGUCUGC [hsa-miR-130a-5p] | 124% | -14.6% | 19%
UUCACCACCUUCUCCACCCAGC [hsa-miR-197-3p] | 28.8% | 10.8% | -10%
UUCACCCCUCUCACCUAAGCAG [hsa-miR-6802-3p] | 63.6% | -11.2% | 15.5%
UUCACUGGAGUUUGUUUCAAUA [hsa-miR-653-3p] | 57.9% | -7.51% | -0.303%
UUCAGAUCCCAGCGGUGCCUCU [hsa-miR-5100] | 39.2% | 14.1% | -27.6%
UUCAGCAGGAACAGCU [hsa-miR-4291] | 45.7% | -4.14% | -7.69%
UUCAGCCAGGCUAGUGCAGUCU [hsa-miR-3157-5p] | 20.1% | 7.66% | -4.24%
UUCAUGAACUGGGUCUAGCUUGG [hsa-miR-7154-5p] | 60.8% | -15.2% | -0.807%
UUCAUUCGGCUGUCCAGAUGUA [hsa-miR-1298] | 130% | -24.3% | 33.4%
